The source of these data is patent publication US20230235004A1 (published 2023).

The target in one assay is T1, human MAdCAM protein (human, UniProt Q13477 19-317, limits assumed).
T1 construct: also called soluble monomeric human MAdCAM; recombinant human MAdCAM
T1 sequence (looked up): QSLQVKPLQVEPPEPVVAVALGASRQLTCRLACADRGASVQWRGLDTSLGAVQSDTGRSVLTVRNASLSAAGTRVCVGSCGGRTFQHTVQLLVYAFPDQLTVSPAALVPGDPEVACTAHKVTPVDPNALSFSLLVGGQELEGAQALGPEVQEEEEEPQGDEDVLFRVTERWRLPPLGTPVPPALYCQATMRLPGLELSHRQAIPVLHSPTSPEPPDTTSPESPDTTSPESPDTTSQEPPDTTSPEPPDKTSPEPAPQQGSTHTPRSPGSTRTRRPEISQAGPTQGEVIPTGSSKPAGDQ
Nature of the assay: Octet. In general terms: In BLI a coated tip is dipped into the sample, and binding shifts an interference pattern.

Assay [1] has as its target T2, mouse MAdCAM expressed on cells (mouse, UniProt Q61826 22-405).
T2 construct: whole, on cells
T2 sequence (looked up): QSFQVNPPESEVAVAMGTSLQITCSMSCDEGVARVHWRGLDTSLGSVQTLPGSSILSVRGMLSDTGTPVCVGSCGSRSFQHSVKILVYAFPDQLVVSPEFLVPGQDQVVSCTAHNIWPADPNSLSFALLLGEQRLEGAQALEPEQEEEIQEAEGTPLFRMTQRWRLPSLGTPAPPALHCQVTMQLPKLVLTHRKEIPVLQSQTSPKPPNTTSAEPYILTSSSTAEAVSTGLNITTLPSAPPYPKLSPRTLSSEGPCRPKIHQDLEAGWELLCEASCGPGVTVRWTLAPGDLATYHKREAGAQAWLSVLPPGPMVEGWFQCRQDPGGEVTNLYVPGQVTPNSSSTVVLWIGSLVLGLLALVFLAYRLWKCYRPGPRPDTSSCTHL
Put plainly: cell binding.

Assay [2] deals with T3, human MAdCAM expressed on cells (human, UniProt Q13477 19-382).
T3 construct: whole, on cells
T3 sequence (looked up): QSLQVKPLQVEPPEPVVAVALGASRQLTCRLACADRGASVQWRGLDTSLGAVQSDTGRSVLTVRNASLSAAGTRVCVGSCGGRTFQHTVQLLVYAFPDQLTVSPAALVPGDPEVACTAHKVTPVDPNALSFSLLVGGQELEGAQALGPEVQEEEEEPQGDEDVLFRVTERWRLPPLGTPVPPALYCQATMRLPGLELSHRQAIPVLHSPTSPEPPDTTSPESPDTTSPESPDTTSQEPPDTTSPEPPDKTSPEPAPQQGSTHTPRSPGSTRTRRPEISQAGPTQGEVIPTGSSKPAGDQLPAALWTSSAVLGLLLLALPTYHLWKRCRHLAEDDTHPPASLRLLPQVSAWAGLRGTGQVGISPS
Nature of the assay: cell binding.

Assay [3] concerns the target T4, recombinant mouse MAdCAM-1 (mouse, UniProt Q61826 22-364, limits assumed).
T4 construct: also called mMAdCAM-1
T4 sequence (looked up): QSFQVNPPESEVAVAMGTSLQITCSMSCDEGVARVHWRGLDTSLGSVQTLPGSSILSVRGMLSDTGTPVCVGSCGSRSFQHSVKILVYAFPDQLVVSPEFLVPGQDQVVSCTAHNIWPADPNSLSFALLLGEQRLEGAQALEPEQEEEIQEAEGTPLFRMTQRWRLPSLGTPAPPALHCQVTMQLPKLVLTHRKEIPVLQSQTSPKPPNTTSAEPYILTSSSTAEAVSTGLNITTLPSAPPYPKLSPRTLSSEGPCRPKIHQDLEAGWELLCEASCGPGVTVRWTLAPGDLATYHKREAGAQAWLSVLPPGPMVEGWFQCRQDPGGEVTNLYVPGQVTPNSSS
Put plainly: Octet.

B1: MAdCAM Antibody Table 2 clone 30 (antibody, V domains shown)
VH: EVQLLESGGGLVQPGGSLRLSCAASGFTFSSYAMHWVRQAPGKGLEWVSGISGSGGSAYYADSVKGRFTISRDNSKNTLYLQMNSLRAEDTAVYYCATSQAPVDYYYYGMDVWGQGTTVTVSS
VL: DIQMTQSPSSLSASVGDRVTITCRASQSISSWLAWYQQKPGKAPKLLIYAASNLQRGVPSRFSGSGSGTDFTLTISSLQPEDFATYYCQQSYSIPITFGQGTKVEIK
notes: IgG format
For B1, the binding result (with human MAdCAM protein; in assay [1]; in assay [2]) was “binds” in each case.

B2: MAdCAM Antibody Table 2 clone 60 (antibody, V domains shown)
VH: EVQLLESGGGLVQPGGSLRLSCAASGFTFSDHGMHWVRQAPGKGLEWVSVIYGGESTYYADSVKGRFTISRDNSKNTLYLQMNSLRAEDTAVYYCARDPAVAGGGIFDYWGQGTLVTVSS
VL: DIQMTQSPSSLSASVGDRVTITCRASQGISNYLAWYQQKPGKAPKLLIYDASNLETGVPSRFSGSGSGTDFTLTISSLQPEDFATYYCQQSYSTCYTFGQGTKLEIK
notes: IgG format
For B2, the binding result (with human MAdCAM protein; in assay [1]; in assay [2]) was “binds” in each case.

B3: MAdCAM Antibody Table 2 clone 6 (antibody, V domains shown)
VH: EVQLLESGGGLVQPGGSLRLSCAASGFTFNNYAFHWVRQAPGKGLEWVSRINSYGTSTTYADSVKGRFTISRDNSKNTLYLQMNSLRAEDTAVYYCAREGPVAGYWYFDLWGQGTLVTVSS
VL: DIQMTQSPSSLSASVGDRVTITCRASQIIGTNLAWYQQKPGKAPKLLIYGASSLQSGVPSRFSGSGSGTDFTLTISSLQPEDFATYYCQQSYRLPFTFGQGTKVEIK
notes: IgG format
Regarding B3, the binding result in assay [3] and in assay [1] was “no binding” each time.

B4: MAdCAM Antibody Table 2 clone 82 (antibody, V domains shown)
VH: QVQLVQSGAEVKKPGASVKVSCKASGYTFTRHWIHWVRQAPGQGLEWMGWINVKTGGAGYAQKFQGRVTMTRDTSTSTVYMELSSLRSEDTAVYYCARESSGWYGTDVWGQGTTVTVSS
VL: DIQMTQSPSSLSASVGDRATITCRASQSISNYLAWYQQKPGKAPKLLIYAASSLQSGVPSRFSGSGSGTDFTLTISSLQPEDFATYYCQQSNSFPLTFGGGTKVEIK
notes: IgG format
With B4, the binding result (in the assay with human MAdCAM protein; in assay [1]; in assay [2]) was “binds” each time.

B5: MAdCAM Antibody Table 2 clone 83 (antibody, V domains shown)
VH: EVQLLESGGGLVQPGGSLRLSCAASGFTFSSYWMHWVRQAPGKGLEWVAAISYDGKYKDYEDSVKGRFTISRDNSKNTLYLQMNSLRAEDTAVYYCARENKQWLASFDYWGQGTLVTVSS
VL: DIQMTQSPSSLSASVGDRVTITCQASQDISNFVNWYQQKPGKAPKLLIYAANLRSGVPSRFSGSGSGTDFTLTISSLQPEDFATYYCQQANSFPVTFGPGTKVDIK
notes: IgG format
On to B5, for which the binding result (with human MAdCAM protein; in assay [1]; in assay [2]) was “binds” in each case.

B6: MAdCAM Antibody Table 2 clone 55 (antibody, V domains shown)
VH: EVQLLESGGGLVQPGGSLRLSCAASGFTFDDFAMHWVRQAPGKGLEWVSGISGNGDSRYYADSVKGRFTISRDNSKNTLYLQMNSLRAEDTAVYYCARDASYGGNYGMDVWGQGTTVTVSS
VL: DIQMTQSPSSLSASVGDRVTITCQASQDIRNYLNWYQQKPGKAPKLLIYKASTLESGVPSRFSGSGSGTDFTLTISSLQPEDFATYYCQQANSFPLTFGPGTKVDIK
notes: IgG format
For B6, the binding result in the assay with human MAdCAM protein is reported as “binds”; in assay [1], “no binding”; in assay [2], “binds”.

B7: MAdCAM Antibody Table 2 clone 58 (antibody, V domains shown)
VH: EVQLLESGGGLVQPGGSLRLSCAASGFSVSSNYMSWVRQAPGKGLEWVAGISYDGSSKPYADSVKGRFTISRDNSKNTLYLQMNSLRAEDTAVYYCARSRGIAARPLQHWGQGTLVTVSS
VL: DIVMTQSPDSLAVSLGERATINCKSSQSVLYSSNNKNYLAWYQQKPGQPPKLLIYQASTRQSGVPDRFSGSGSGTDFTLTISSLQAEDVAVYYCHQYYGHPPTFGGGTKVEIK
notes: IgG format
On to B7, for which the binding result is on record as “binds” in the assay with human MAdCAM protein, “no binding” in assay [1] and “binds” in assay [2].

B8: MAdCAM Antibody Table 2 clone 76 (antibody, V domains shown)
VH: EVQLLESGGGLVQPGGSLRLSCAASGFTFDDYTMHWVRQAPGKGLEWVSDISGSGGSTYYADSVKGRFTISRDNSKNTLYLQMNSLRAEDTAVYYCAKDVVVAGTPLHFDYWGQGTLVTVSS
VL: DIQMTQSPSSLSASVGDRVTITCQASQDISNYLNWYQQKPGKAPKLLIYAASYLQSGVPSRFSGSGSGTDFTLTISSLQPEDFATYYCQQAHNYPITFGQGTRLEIK
notes: IgG format
As for B8, the binding result (with human MAdCAM protein; in assay [1]; in assay [2]) was “binds” throughout.

B9: MAdCAM Antibody Table 2 clone 84 (antibody, V domains shown)
VH: QVQLVQSGAEVKKPGASVKVSCKASGGTFSSSAISWVRQAPGQGLEWMGWISAYNGYTNYAQKFQGRVTMTRDTSTSTVYMELSSLRSEDTAVYYCASRVHSGGSYPDDYWGQGTLVTVSS
VL: DIQMTQSPSSLSASVGDRVTITCQASEHIYNYLNWYQQKPGKAPKLLIYAASSLQSGVPSRFSGSGSGTDFTLTISSLQPEDFATYYCQQTDSIPITFGQGTKVEIK
notes: IgG format
Take B9: the binding result (with human MAdCAM protein; in assay [1]; in assay [2]) was “binds” each time.

B10: MAdCAM Antibody Table 2 clone 28 (antibody, V domains shown)
VH: EVQLLESGGGLVQPGGSLRLSCAASGFTFSSYAMSWVRQAPGKGLEWVSYISSSSTYTNYADSVKGRFTISRDNSKNTLYLQMNSLRAEDTAVYYCARANSSSWYDWYFDLWGQGTLVTVSS
VL: not shown
notes: IgG format
With B10, the binding result in assay [3] and in assay [1] was “no binding” throughout.

B11: MAdCAM Antibody Table 2 clone 29 (antibody, V domains shown)
VH: EVQLLESGGGLVQPGGSLRLSCAASGFTFSSYQMSWVRQAPGKGLEWVSYISSSSTYTNYADSVKGRFTISRDNSKNTLYLQMNSLRAEDTAVYYCARANSSSWYDWYFDLWGQGTLVTVSS
VL: not shown
notes: IgG format
For the molecule B11, the binding result in assay [3] and in assay [1] was “no binding” throughout.

B12: MAdCAM Antibody Table 2 clone 78 (antibody, V domains shown)
VH: QVQLVQSGAEVKKPGSSVKVSCKASGGTFSSYAISWVRQAPGQGLEWMGWMEPHTGNTRYAQKFQGRVTITADESTSTAYMELSSLRSEDTAVYYCAKGGFSWFDPWGQGTLVTVSS
VL: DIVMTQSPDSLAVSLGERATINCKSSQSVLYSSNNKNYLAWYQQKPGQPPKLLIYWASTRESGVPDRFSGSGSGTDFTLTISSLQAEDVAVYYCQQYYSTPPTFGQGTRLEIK
notes: IgG format
With B12, the binding result (in the assay with human MAdCAM protein; in assay [1]; in assay [2]) was “binds” each time.

B13: MAdCAM Antibody Table 2 clone 36 (antibody, V domains shown)
VH: EVQLLESGGGLVQPGGSLRLSCAASGFTFDDYALHWVRQAPGKGLEWVSAISGDGRSTTYADSVKGRFTISRDNSKNTLYLQMNSLRAEDTAVYYCARDGTVNGATGWFDPWGQGTLVTVSS
VL: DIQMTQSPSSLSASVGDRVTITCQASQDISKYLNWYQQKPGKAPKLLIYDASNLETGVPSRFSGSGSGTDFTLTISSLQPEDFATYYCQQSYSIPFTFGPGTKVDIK
notes: IgG format
As for B13, the binding result (with human MAdCAM protein; in assay [1]; in assay [2]) was “binds” throughout.

B14: MAdCAM Antibody Table 2 clone 14 (antibody, V domains shown)
VH: QVQLVQSGAEVKKPGSSVKVSCKASGYTFTNYYMHWVRQAPGQGLEWMGGIIPIVDGVKYAQKFQGRVTITADESTSTAYMELSSLRSEDTAVYYCAKGQFTGNYYYGMDYWGQGTLVTVSS
VL: DIQMTQSPSSLSASVGDRVTITCQANQDISNYLNWYQQKPGKAPKLLIYRASKLEAGVPSRFSGSGSGTDFTLTISSLQPEDFATYYCQQSSEIPYSFGQGTKVEIK
notes: IgG format
Turning to B14, the binding result in assay [3] and in assay [1] was “no binding” throughout.

B15: MAdCAM Antibody Table 2 clone 63 (antibody, V domains shown)
VH: EVQLLESGGGLVQPGGSLRLSCAASGFTFNNYGMNWVRQAPGKGLEWVSRINSDGSSTSYADSVKGRFTISRDNSKNTLYLQMNSLRAEDTAVYYCARGAYYYYYMDVWGQGTLVTVSS
VL: EIVMTQSPATLSVSPGERATLSCRASQSVSGSYLAWYQQKPGQAPRLLIYATSSRASGIPARFSGSGSGTEFTLTISSLQSEDFAVYYCQQYYSGLTFGQGTKVEIK
notes: IgG format
In the case of B15, the binding result with human MAdCAM protein is “binds”; in assay [1], “no binding”; in assay [2], “binds”.
